Experiment [1] concerns C57B1/6 mice. The experiment in a line: MCAO ischemic stroke and reperfusion in C57B1/6 mice, treatment. Format: in vivo. The note with it: 100 μg i.v. at 30 min post reperfusion. Here is the method: Eight week old male C57B1/6 and C57B1/6 C3 deficient mice (Jackson labs, Bar Harbor, Me.) were used in experiments. Mice were anesthetized with chloral hydrate (350 mg/kg) and xylazine (4 mg/kg) i.p., and the left common carotid artery of each mouse was exposed through a mid-line incision in the neck. […] The distal end of the ECA was ligated with 6-0 silk and transected, and 6-0 silk was tied loosely around the ECA stump. The clip was then removed, and the blunted tip of a 4-0 nylon suture was inserted into the ECA stump. The loop of the 6-0 silk was tightened around the stump, and the nylon suture advanced into and through the internal carotid artery until it rested in the anterior cerebral artery. After the nylon suture had been placed for 60 minutes, it was pulled back into the ECA, and the incision closed. […]
Infarct volume was measured by TTC staining and volume calculated using image analysis.
Animals were monitored for 24 hours post reperfusion and clinical assessed for neurological deficit. Behavioral/neurological deficit was scored as follows: 0, normal motor function; 1, flexion of torso and contralateral forelimb when animal is lifted by the tail; 2, circling to the contralateral side when held by tail on flat surface, but normal posture at rest; 3, leaning to the contralateral side at rest; 4, no spontaneous motor activity. […]

The test system of experiment [2] is C57B1/6 mice. The experiment in a line: Intestinal ischemia-reperfusion injury model in immune competent mice. Format: in vivo. The note with it: injected right before the reperfusion phase, FIG. 9. On the procedure:
To address this issue, the inventors created compounds that could block the effects of the monoclonal antibodies. This concept was first tested with the antibodies recognizing phospholipids, and liposomes were created composed of cholesterol and the phospholipids phosphatidylcholine and phosphoglycerol.
Wild type C57BL/6 are utilized for these studies. The ischemia-reperfusion model is performed as outlined briefly. Anesthesia is induced with ketamine (16 mg/kg) and xylazine (8 mg/kg) administered by intramuscular injection. All procedures are performed with the animals breathing spontaneously and body temperature maintained at 37° C. using a water-circulating heating pad. To induce ischemia-reperfusion injury, a midline laparotomy is performed prior to a 30 minute equilibration period. […] After this ischemic phase, the clamp is removed under direct visualization and the intestine allowed to perfuse for 2 hours. […] The laparotomy incisions are then sutured and the animals monitored during the reperfusion period. […]
For histology and immunohistochemistry, immediately after euthansia segments of small intestine specimens are fixed in 10% buffered formalin. […] In addition, the villus height of at least 10 villi from the same section is measured using an ocular micrometer. […]

B1: annexin IV: recombinant annexin IV, a phospholipid binding protein, prepared as in Example 2 (protein, listed as Homo sapiens)
chain: MATKGGTVKAASGFNAMEDAQTLRKAMKGLGTDEDAIISVLAYRNTAQRQEIRTAYKSTIGRDLIDDLKSELSGNFEQVIVGMMTPTVLYDVQELRRAMKGAGTDEGCLIEILASRTPEEIRRISQTYQQQYGRSLEDDIRSDTSFMFQRVLVSLSAGGRDEGNYLDDALVRQDAQDLYEAGEKKWGTDEVKFLTVLCSRNRNHLLHVFDEYKRISQKDIEQSIKSETSGSFEDALLAIVKCMRNKSAYFAEKLYKSMKGLGTDDNTLIRVMVSRAEIDMLDIRAHFKRLYGKSLYSFIKGDTSGDYRKVLLVLCGGDD
Consider B1, for which, in the experiment with C57B1/6 mice [1] (24 hours, FIG. 8), the neurological deficit result was “significant reduction in neurological deficit”. The “cerebral infarct volume (TTC)” value in the experiment on C57B1/6 mice [1] (FIG. 7) is “significantly protects against cerebral infarct”. In addition, the intestinal ischemia-reperfusion injury result in the experiment with C57B1/6 mice [2] is recorded as “nearly completely protected mice from ischemia-reperfusion injury”; in the experiment on C57B1/6 mice [2] (listed as recombinant annexin IV), “reduces the level of intestinal ischemia reperfusion injury”.

The values above are taken from patent US20130171236A1, “Prevention and Treatment of Ischemia-Reperfusion Injury and Related Conditions” (MEDICAL UNIVERSITY OF SOUTH CAROLINA, priority 2006, published 2013).
